From patent publication US20130209454A1

Legend:
Test in all cases: cell-based or functional assay
[1] = target: HIV-1 Env of strain Du172.17 (HIV-1)
[2] = target: HIV-1 strain CNE53 envelope (gp120) (HIV-1)
[3] = target: HIV-1 Env of strain TRO.11 (HIV-1)
[4] = target: HIV-1 strain P1981_C5_3 envelope (gp120) (HIV-1)
[5] = target: HIV-1 strain 3103.v3.c10 envelope (gp120) (HIV-1)
[6] = target: HIV-1 strain C3347.c11 envelope (gp120) (HIV-1)
[7] = target: HIV-1 strain Q769.d22 envelope (gp120) (HIV-1)
[8] = target: HIV-1 strain P0402_c2_11 envelope (gp120) (HIV-1)
[9] = target: HIV-1 strain HIV-16845-2.22 envelope (gp120) (HIV-1)
[10] = target: HIV-1 strain 3817.v2.c59 envelope (gp120) (HIV-1)
[11] = target: HIV-1 Env of strain 3718.v3.c11 (HIV-1)
[12] = target: HIV-1 strain 6535.3 envelope (gp120) (HIV-1)
[13] = target: HIV-1 strain T250-4 envelope (gp120) (HIV-1)
[14] = target: HIV-1 Env of strain Ce2060_G9 (HIV-1)
[15] = target: HIV-1 Env of strain RHPA4259.7 (HIV-1)
[16] = target: HIV-1 Env of strain P0402_c2_11 (HIV-1)
[17] = target: HIV-1 Env of strain 3103.v3.c10 (HIV-1)
[18] = target: HIV-1 strain ZM197M.PB7 envelope (gp120) (HIV-1)
[19] = target: HIV-1 strain 6545.v4.c1 envelope (gp120) (HIV-1)
[20] = target: HIV-1 Env of strain CNE53 (HIV-1)
[21] = target: HIV-1 Env of strain CNE30 (HIV-1)
[22] = target: HIV-1 Env of strain WEAU_d15_410_787 (HIV-1)
[23] = target: HIV-1 strain REJO4541.67 envelope (gp120) (HIV-1)
[24] = target: HIV-1 Env of strain 6540.v4.cl (HIV-1)
[25] = target: HIV-1 Env of strain ZM135M.PL10a (HIV-1)
[26] = target: HIV-1 strain 1054_07_TC4_1499 envelope (gp120) (HIV-1)
[27] = target: HIV-1 strain 211-9 envelope (gp120) (HIV-1)
[28] = target: HIV-1 strain 1006_11_C3_1601 envelope (gp120) (HIV-1)
[29] = target: HIV-1 Env of strain C2101.c01 (HIV-1)
[30] = target: HIV-1 strain 6811.v7.c18 envelope (gp120) (HIV-1)
[31] = target: HIV-1 Env of strain ZM197M.PB7 (HIV-1)
[32] = target: HIV-1 Env of strain PVO.4 (HIV-1)
[33] = target: HIV-1 strain CAAN5342.A2 envelope (gp120) (HIV-1)
[34] = target: HIV-1 Env of strain ZM109F.PB4 (HIV-1)
[35] = target: HIV-1 Env of strain 3301.v1.c24 (HIV-1)
[36] = target: HIV-1 Env of strain C3347.c11 (HIV-1)
[37] = target: HIV-1 strain ZM249M.PL1 envelope (gp120) (HIV-1)
[38] = target: HIV-1 Env of strain 6545.v4.cl (HIV-1)
[39] = target: HIV-1 strain T257-31 envelope (gp120) (HIV-1)
[40] = target: HIV-1 Env of strain Du422.1 (HIV-1)
[41] = target: HIV-1 Env of strain 62357_14_D3_4589 (HIV-1)
[42] = target: HIV-1 Env of strain Ce0393_C3 (HIV-1)
[43] = target: HIV-1 strain SC422661.8 envelope (gp120) (HIV-1)
[44] = target: HIV-1 Env of strain 928-28 (HIV-1)
[45] = target: HIV-1 strain CAP210.2.00.E8 envelope (gp120) (HIV-1)
[46] = target: HIV-1 Env of strain X2131_C1_B5 (HIV-1)
[47] = target: HIV-1 Env of strain Du156.12 (HIV-1)
[48] = target: HIV-1 strain 6540.v4.c1 envelope (gp120) (HIV-1)
[49] = target: HIV-1 Env of strain WITO4160.33 (HIV-1)
[50] = target: HIV-1 strain 3301.v1.c24 envelope (gp120) (HIV-1)

B1: NIH45-46^G54F IgG (antibody, name in Kabat numbering, V domains shown)
VH: QVRLSQSGGQMKKPGESMRLSCRASGYEFLNCPINWIRLAPGRRPEWMGWLKPRFGAVNYARKFQGRVTMTRDVYSDTAFLELRSLTSDDTAVYFCTRGKYCTARDYYNWDFEHWGRGAPVTVSS
VL: EIVLTQSPATLSLSPGETAIISCRTSQSGSLAWYQQRPGQAPRLVIYSGSTRAAGIPDRFSGSRWGADYNLSISNLESGDFGVYYCQQYEFFGQGTKVQVDI
[1]
  neutralization IC50: > 50 µg/mL
[2]
  neutralization IC80: 0.024 µg/mL
[3]
  neutralization IC50: 0.11 µg/mL
[4]
  neutralization IC80: 0.11 µg/mL
[5]
  neutralization IC80: 1.28 µg/mL
[6]
  neutralization IC80: 0.059 µg/mL
[7]
  neutralization IC80: 0.023 µg/mL
[8]
  neutralization IC80: 0.047 µg/mL
[9]
  neutralization IC80: 2.75 µg/mL
[10]
  neutralization IC80: > 50 µg/mL
[11]
  neutralization IC50: 0.32 µg/mL
[12]
  neutralization IC80: 0.27 µg/mL
[13]
  neutralization IC80: > 50 µg/mL
[14]
  neutralization IC50: 0.022 µg/mL
[15]
  neutralization IC50: 0.005 µg/mL
[16]
  neutralization IC50: 0.008 µg/mL
[17]
  neutralization IC50: 0.37 µg/mL
[18]
  neutralization IC80: 0.23 µg/mL
[19]
  neutralization IC80: > 50 µg/mL
[20]
  neutralization IC50: 0.005 µg/mL
[21]
  neutralization IC50: 0.1 µg/mL
[22]
  neutralization IC50: < 0.001 µg/mL
[23]
  neutralization IC80: 0.028 µg/mL
[24]
  neutralization IC50: > 50 µg/mL
[25]
  neutralization IC50: 0.13 µg/mL
[26]
  neutralization IC80: 0.283 µg/mL
[27]
  neutralization IC80: > 50 µg/mL
[28]
  neutralization IC80: 0.024 µg/mL
[29]
  neutralization IC50: 0.11 µg/mL
[30]
  neutralization IC80: 0.063 µg/mL
[31]
  neutralization IC50: 0.09 µg/mL
[32]
  neutralization IC50: 0.07 µg/mL
[33]
  neutralization IC80: 0.28 µg/mL
[34]
  neutralization IC50: 0.022 µg/mL
[35]
  neutralization IC50: 0.001 µg/mL
[36]
  neutralization IC50: 0.015 µg/mL
[37]
  neutralization IC80: 0.016 µg/mL
[38]
  neutralization IC50: > 50 µg/mL
[39]
  neutralization IC80: 0.51 µg/mL
[40]
  neutralization IC50: > 50 µg/mL
[41]
  neutralization IC50: 0.04 µg/mL
[42]
  neutralization IC50: 0.04 µg/mL
[43]
  neutralization IC80: 0.1 µg/mL
[44]
  neutralization IC50: 0.11 µg/mL
[45]
  neutralization IC80: > 50 µg/mL
[46]
  neutralization IC50: 0.1 µg/mL
[47]
  neutralization IC50: < 0.001 µg/mL
[48]
  neutralization IC80: > 50 µg/mL
[49]
  neutralization IC50: 0.02 µg/mL
[50]
  neutralization IC80: 0.011 µg/mL
